Biological target: T1, AP2-LT D1 (Plasmodium falciparum, UniProt Q8IAM1 2520-2577)
T1 sequence: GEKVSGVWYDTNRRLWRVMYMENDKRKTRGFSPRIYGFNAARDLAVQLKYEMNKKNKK
Assay: gcPBM; about 25 ug protein; PBS, 1% milk, 0.2 mg/ml BSA, salmon testes DNA, 0.03% Triton X-100
Settings: tags: N-terminal GST (pGEX-4T-1), kept; label: surface-attached array probe

B1: CACACA_site8266 (dsDNA)
DNA 1: TATGCATATACACAAGCACACATATATATATATATA
DNA 2: TATATATATATATATGTGTGCTTGTGTATATGCATA
For B1, the binding signal was 10.1 ln median PBM intensity, better of two orientations.

B2: CACACA_site4294 (dsDNA)
DNA 1: TTTATTAATGGACACACACACACACCCAAAATAAAA
DNA 2: TTTTATTTTGGGTGTGTGTGTGTGTCCATTAATAAA
With B2 the binding signal was 10.1 ln median PBM intensity, better of two orientations.

B3: CACACA_site242 (dsDNA)
DNA 1: TTTATTAAGAAACACACACACACACCCAAAATAAAA
DNA 2: TTTTATTTTGGGTGTGTGTGTGTGTTTCTTAATAAA
With B3 the binding signal was 10.1 ln median PBM intensity, better of two orientations.

B4: CACACA_site4351 (dsDNA)
DNA 1: CCCACAGACGGACACACACACATATATATATATATA
DNA 2: TATATATATATATATGTGTGTGTGTCCGTCTGTGGG
In the case of B4, the binding signal is reported as 10.2 ln median PBM intensity, better of two orientations.

B5: CACACA_site9270 (dsDNA)
DNA 1: AAAAAAAAAAAATATACACACACACCGACACATAAA
DNA 2: TTTATGTGTCGGTGTGTGTGTATATTTTTTTTTTTT
For B5, the binding signal was 10.2 ln median PBM intensity, better of two orientations.

B6: CACACA_site6448 (dsDNA)
DNA 1: AAAATACACGCATACACACACACACGCGCACATATA
DNA 2: TATATGTGCGCGTGTGTGTGTGTATGCGTGTATTTT
In the case of B6, the binding signal is reported as 10.2 ln median PBM intensity, better of two orientations.

B7: CACACA_site9096 (dsDNA)
DNA 1: TCATAAATTAAACACACACACACATCTGGATACCCC
DNA 2: GGGGTATCCAGATGTGTGTGTGTGTTTAATTTATGA
With B7 the binding signal was 10.1 ln median PBM intensity, better of two orientations.

B8: CACACA_site7828 (dsDNA)
DNA 1: TATATAAATAGACACACACACACCTTATAATTACTA
DNA 2: TAGTAATTATAAGGTGTGTGTGTGTCTATTTATATA
With B8 the binding signal was 10.2 ln median PBM intensity, better of two orientations.

B9: CACACA_site3390 (dsDNA)
DNA 1: ACAAAATAAAAACACACACACAAACACAAAAAAATA
DNA 2: TATTTTTTTGTGTTTGTGTGTGTGTTTTTATTTTGT
For B9, the binding signal was 10.1 ln median PBM intensity, better of two orientations.

B10: CACACA_site8035 (dsDNA)
DNA 1: TAAGTATACACATACACACACACACTAATAAAAAAA
DNA 2: TTTTTTTATTAGTGTGTGTGTGTATGTGTATACTTA
With B10 the binding signal was 10.2 ln median PBM intensity, better of two orientations.

B11: CACACA_site8234 (dsDNA)
DNA 1: CTATTTCATAAACACACACACACAAACAAACATATA
DNA 2: TATATGTTTGTTTGTGTGTGTGTGTTTATGAAATAG
For B11, the binding signal was 10.2 ln median PBM intensity, better of two orientations.

B12: CACACA_site5591 (dsDNA)
DNA 1: ATAATATAAACATACACACACACATATATATATATA
DNA 2: TATATATATATATGTGTGTGTGTATGTTTATATTAT
For B12, the binding signal was 10.1 ln median PBM intensity, better of two orientations.

B13: CACACA_site5250 (dsDNA)
DNA 1: CGCGCCCAGAAACACACACACACACCGATATATATA
DNA 2: TATATATATCGGTGTGTGTGTGTGTTTCTGGGCGCG
For B13, the binding signal was 10.2 ln median PBM intensity, better of two orientations.

B14: CACACA_site2539 (dsDNA)
DNA 1: TATATATAGAAACACACACACACATATATATATATT
DNA 2: AATATATATATATGTGTGTGTGTGTTTCTATATATA
In the case of B14, the binding signal is reported as 10.1 ln median PBM intensity, better of two orientations.

B15: CACACA_site4429 (dsDNA)
DNA 1: TAAACATACAGATACACACACACACCCACAGAGACA
DNA 2: TGTCTCTGTGGGTGTGTGTGTGTATCTGTATGTTTA
In the case of B15, the binding signal is reported as 10.1 ln median PBM intensity, better of two orientations.

B16: CACACA_site5033 (dsDNA)
DNA 1: TCATAGTATGGACACACACACACACCCATATATATA
DNA 2: TATATATATGGGTGTGTGTGTGTGTCCATACTATGA
For B16, the binding signal was 10.2 ln median PBM intensity, better of two orientations.

B17: CACACA_site5977 (dsDNA)
DNA 1: AATGACAACCTTGTCACACATATATATATATATATA
DNA 2: TATATATATATATATATGTGTGACAAGGTTGTCATT
In the case of B17, the binding signal is reported as 10.2 ln median PBM intensity, better of two orientations.

B18: CACACA_site3391 (dsDNA)
DNA 1: AAAAAAAAAAAAAACACACATACACGCCCACCCATA
DNA 2: TATGGGTGGGCGTGTATGTGTGTTTTTTTTTTTTTT
With B18 the binding signal was 10.1 ln median PBM intensity, better of two orientations.

Reference: publication PMC11417369, “DNA sequence and chromatin differentiate sequence-specific transcription factor binding in the human malaria parasite Plasmodium falciparum”
